# Test results published in patent US20050112126A1 (Genentech, published 2005).
# T1: VEGF121 (human, UniProt P15692 27-147)
# T1 construct: mature; Immobilized on the biosensor chip via primary amino groups; also called Purified VEGF121
# T1 sequence (looked up): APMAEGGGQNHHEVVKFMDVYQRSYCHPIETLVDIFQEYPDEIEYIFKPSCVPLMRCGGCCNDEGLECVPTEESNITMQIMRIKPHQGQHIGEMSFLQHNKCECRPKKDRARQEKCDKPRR
# Target: T1, VEGF121
# Test: BIAcore SPR, Fab over immobilized VEGF121
# Procedure: VEGF₁₂₁ was covalently immobilized on the biosensorchip via primary amino groups. Binding of humanized A4.6.1 Fab variants was measured by flowing solutions of Fab in PBS/0.05% TWEEN 20™ over the chip at a flow rate of 20 μL/min. Following each binding measurement, residual Fab was stripped from the immobilized ligand by washing with 5 μL of 50 mM aqueous HCl at 3 μL/min. Binding profiles were analyzed by nonlinear regression using a simple monovalent binding model (BIAevaluation software v2.0; Pharmacia).
Binder,KD(A4.6.1)/KD(mut) as headed (values read as KD(mut)/KD(A4.6.1)) [ratio],Kd [nM],koff [s⁻¹],kon [M⁻¹ s⁻¹]
"hu2.1 (Fab, name in Kabat numbering, V domains shown, soluble Fab with human constant domains) VH: EVQLVESGGGLVQPGGSLRLSCAASGYTFTNYGMNWIRQAPGKGLEWVGWINTYTGEPTYAADFKRRFTISRDNSKNTVYLQMNSLRAEDTAVYYCAKYPHYYGSSHWYFDVWGQGTLVTVSS VL: DIQMTQSPSSLSASVGDRVTITCSASQDISNYLNWYQQKPGKAPKLLIYFTSSLHSGVPSRFSGSGSGTDYTLTISSLQPEDFATYYCQQYSTVPWTFGQGTKVEIK",170,260,0.0018,7000
"hu2.2 (Fab, name in Kabat numbering, V domains shown, soluble Fab with human constant domains) VH: EVQLVESGGGLVQPGGSLRLSCAASGYTFTNYGMNWIRQAPGKGLEWVGWINTYTGEPTYAADFKRRFTISRDNSKNTVYLQMNSLRAEDTAVYYCAKYPHYYGSSHWYFDVWGQGTLVTVSS VL: DIQLTQSPSSLSASVGDRVTITCSASQDISNYLNWYQQKPGKAPKLLIYFTSSLHSGVPSRFSGSGSGTDYTLTISSLQPEDFATYYCQQYSTVPWTFGQGTKVEIK",210,340,0.0016,4700

# Target: T2, VEGF (human, UniProt P15692-4 27-191, limits assumed)
# T2 construct: Biotinylated in the KDR-IgG ELISA, amine-coupled to the chip in BIAcore; also called biotinylated VEGF; vascular endothelial growth factor
# T2 sequence (P15692 other isoform, or with tags, fused parts or gaps limits assumed): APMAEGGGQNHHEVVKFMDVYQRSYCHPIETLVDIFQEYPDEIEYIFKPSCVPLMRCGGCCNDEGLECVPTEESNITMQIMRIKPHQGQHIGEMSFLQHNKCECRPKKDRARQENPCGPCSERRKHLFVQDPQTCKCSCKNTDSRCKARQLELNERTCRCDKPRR
# Test: competitive phage-ELISA, relative to pY0192
# Procedure: In such an assay, phages were first serially diluted to determine a fractional saturation titer which was then held constant and used to incubate with varying concentrations of VEGF (starting at 200 nM to 0 nM) in solution. The mixture was then transferred onto plate precoated with VEGF (2 μg/mL) and blocked with 5% instant milk, and allowed to equilibrate for 1 hour at room temperature. Thereafter, the phage solution was removed and the remaining bound phages were detected with a solution of rabbit anti-phage antibody mixed with goat anti-rabbit conjugate of horse radish peroxidase. After an hour incubation at room temperature, the plate was developed with a chromogenic substrate, o-phenylenediamine (Sigma). The reaction was stopped with addition of ½ volume of 2.5 M H₂SO₄. Optical density at 492 nm was measured on a spectrophotometric plate reader.
# IC50's were determined in a competitive phage-ELISA assay.
row,Binder,IC50 (mut)/IC50 (wt) [ratio]
1,"pY0192 VL P95A (Fab, V domains shown, Ala-scan variant of pY0192; Fab on phage) VH: EVQLVESGGGLVQPGGSLRLSCAASGYTFTNYGINWVRQAPGKGLEWVGWINTYTGEPTYAADFKRRFTFSLDTSKSTAYLQMNSLRAEDTAVYYCAKYPHYYGSSHWYFDVWGQGTL VL: DIQLTQSPSSLSASVGDRVTITCRANEQLSNYLNWYQQKPGKAPKVLIYFTSSLHSGVPSRFSGSGSGTDFTLTISSLQPEDFATYYCQQYSTVAWTFGQGTKVEIKR",3
2,"pY0192 VL Q28A (Fab, V domains shown, Ala-scan variant of pY0192; Fab on phage) VH: EVQLVESGGGLVQPGGSLRLSCAASGYTFTNYGINWVRQAPGKGLEWVGWINTYTGEPTYAADFKRRFTFSLDTSKSTAYLQMNSLRAEDTAVYYCAKYPHYYGSSHWYFDVWGQGTL VL: DIQLTQSPSSLSASVGDRVTITCRANEALSNYLNWYQQKPGKAPKVLIYFTSSLHSGVPSRFSGSGSGTDFTLTISSLQPEDFATYYCQQYSTVPWTFGQGTKVEIKR",1
3,"pY0192 VL Q89A (Fab, V domains shown, Ala-scan variant of pY0192; Fab on phage) VH: EVQLVESGGGLVQPGGSLRLSCAASGYTFTNYGINWVRQAPGKGLEWVGWINTYTGEPTYAADFKRRFTFSLDTSKSTAYLQMNSLRAEDTAVYYCAKYPHYYGSSHWYFDVWGQGTL VL: DIQLTQSPSSLSASVGDRVTITCRANEQLSNYLNWYQQKPGKAPKVLIYFTSSLHSGVPSRFSGSGSGTDFTLTISSLQPEDFATYYCAQYSTVPWTFGQGTKVEIKR",4
4,"pY0192 VL Q90A (Fab, V domains shown, Ala-scan variant of pY0192; Fab on phage) VH: EVQLVESGGGLVQPGGSLRLSCAASGYTFTNYGINWVRQAPGKGLEWVGWINTYTGEPTYAADFKRRFTFSLDTSKSTAYLQMNSLRAEDTAVYYCAKYPHYYGSSHWYFDVWGQGTL VL: DIQLTQSPSSLSASVGDRVTITCRANEQLSNYLNWYQQKPGKAPKVLIYFTSSLHSGVPSRFSGSGSGTDFTLTISSLQPEDFATYYCQAYSTVPWTFGQGTKVEIKR",3
5,"pY0192 VL R24A (Fab, V domains shown, Ala-scan variant of pY0192; Fab on phage) VH: EVQLVESGGGLVQPGGSLRLSCAASGYTFTNYGINWVRQAPGKGLEWVGWINTYTGEPTYAADFKRRFTFSLDTSKSTAYLQMNSLRAEDTAVYYCAKYPHYYGSSHWYFDVWGQGTL VL: DIQLTQSPSSLSASVGDRVTITCAANEQLSNYLNWYQQKPGKAPKVLIYFTSSLHSGVPSRFSGSGSGTDFTLTISSLQPEDFATYYCQQYSTVPWTFGQGTKVEIKR",1
6,"pY0192 VL S30A (Fab, V domains shown, Ala-scan variant of pY0192; Fab on phage) VH: EVQLVESGGGLVQPGGSLRLSCAASGYTFTNYGINWVRQAPGKGLEWVGWINTYTGEPTYAADFKRRFTFSLDTSKSTAYLQMNSLRAEDTAVYYCAKYPHYYGSSHWYFDVWGQGTL VL: DIQLTQSPSSLSASVGDRVTITCRANEQLANYLNWYQQKPGKAPKVLIYFTSSLHSGVPSRFSGSGSGTDFTLTISSLQPEDFATYYCQQYSTVPWTFGQGTKVEIKR",2
7,"pY0192 VL S52A (Fab, V domains shown, Ala-scan variant of pY0192; Fab on phage) VH: EVQLVESGGGLVQPGGSLRLSCAASGYTFTNYGINWVRQAPGKGLEWVGWINTYTGEPTYAADFKRRFTFSLDTSKSTAYLQMNSLRAEDTAVYYCAKYPHYYGSSHWYFDVWGQGTL VL: DIQLTQSPSSLSASVGDRVTITCRANEQLSNYLNWYQQKPGKAPKVLIYFTASLHSGVPSRFSGSGSGTDFTLTISSLQPEDFATYYCQQYSTVPWTFGQGTKVEIKR",1
8,"pY0192 VL S53A (Fab, V domains shown, Ala-scan variant of pY0192; Fab on phage) VH: EVQLVESGGGLVQPGGSLRLSCAASGYTFTNYGINWVRQAPGKGLEWVGWINTYTGEPTYAADFKRRFTFSLDTSKSTAYLQMNSLRAEDTAVYYCAKYPHYYGSSHWYFDVWGQGTL VL: DIQLTQSPSSLSASVGDRVTITCRANEQLSNYLNWYQQKPGKAPKVLIYFTSALHSGVPSRFSGSGSGTDFTLTISSLQPEDFATYYCQQYSTVPWTFGQGTKVEIKR",1
9,"pY0192 VL S56A (Fab, V domains shown, Ala-scan variant of pY0192; Fab on phage) VH: EVQLVESGGGLVQPGGSLRLSCAASGYTFTNYGINWVRQAPGKGLEWVGWINTYTGEPTYAADFKRRFTFSLDTSKSTAYLQMNSLRAEDTAVYYCAKYPHYYGSSHWYFDVWGQGTL VL: DIQLTQSPSSLSASVGDRVTITCRANEQLSNYLNWYQQKPGKAPKVLIYFTSSLHAGVPSRFSGSGSGTDFTLTISSLQPEDFATYYCQQYSTVPWTFGQGTKVEIKR",1
10,"pY0192 VL S92A (Fab, V domains shown, Ala-scan variant of pY0192; Fab on phage) VH: EVQLVESGGGLVQPGGSLRLSCAASGYTFTNYGINWVRQAPGKGLEWVGWINTYTGEPTYAADFKRRFTFSLDTSKSTAYLQMNSLRAEDTAVYYCAKYPHYYGSSHWYFDVWGQGTL VL: DIQLTQSPSSLSASVGDRVTITCRANEQLSNYLNWYQQKPGKAPKVLIYFTSSLHSGVPSRFSGSGSGTDFTLTISSLQPEDFATYYCQQYATVPWTFGQGTKVEIKR",1
11,"pY0192 VL T51A (Fab, V domains shown, Ala-scan variant of pY0192; Fab on phage) VH: EVQLVESGGGLVQPGGSLRLSCAASGYTFTNYGINWVRQAPGKGLEWVGWINTYTGEPTYAADFKRRFTFSLDTSKSTAYLQMNSLRAEDTAVYYCAKYPHYYGSSHWYFDVWGQGTL VL: DIQLTQSPSSLSASVGDRVTITCRANEQLSNYLNWYQQKPGKAPKVLIYFASSLHSGVPSRFSGSGSGTDFTLTISSLQPEDFATYYCQQYSTVPWTFGQGTKVEIKR",1
12,"pY0192 VL T93A (Fab, V domains shown, Ala-scan variant of pY0192; Fab on phage) VH: EVQLVESGGGLVQPGGSLRLSCAASGYTFTNYGINWVRQAPGKGLEWVGWINTYTGEPTYAADFKRRFTFSLDTSKSTAYLQMNSLRAEDTAVYYCAKYPHYYGSSHWYFDVWGQGTL VL: DIQLTQSPSSLSASVGDRVTITCRANEQLSNYLNWYQQKPGKAPKVLIYFTSSLHSGVPSRFSGSGSGTDFTLTISSLQPEDFATYYCQQYSAVPWTFGQGTKVEIKR",1
13,"pY0192 VL T97A (Fab, V domains shown, Ala-scan variant of pY0192; Fab on phage) VH: EVQLVESGGGLVQPGGSLRLSCAASGYTFTNYGINWVRQAPGKGLEWVGWINTYTGEPTYAADFKRRFTFSLDTSKSTAYLQMNSLRAEDTAVYYCAKYPHYYGSSHWYFDVWGQGTL VL: DIQLTQSPSSLSASVGDRVTITCRANEQLSNYLNWYQQKPGKAPKVLIYFTSSLHSGVPSRFSGSGSGTDFTLTISSLQPEDFATYYCQQYSTVPWAFGQGTKVEIKR",1
14,"pY0192 VL V94A (Fab, V domains shown, Ala-scan variant of pY0192; Fab on phage) VH: EVQLVESGGGLVQPGGSLRLSCAASGYTFTNYGINWVRQAPGKGLEWVGWINTYTGEPTYAADFKRRFTFSLDTSKSTAYLQMNSLRAEDTAVYYCAKYPHYYGSSHWYFDVWGQGTL VL: DIQLTQSPSSLSASVGDRVTITCRANEQLSNYLNWYQQKPGKAPKVLIYFTSSLHSGVPSRFSGSGSGTDFTLTISSLQPEDFATYYCQQYSTAPWTFGQGTKVEIKR",2
15,"pY0192 VL Y32A (Fab, V domains shown, Ala-scan variant of pY0192; Fab on phage; also called Y32A (VL)) VH: EVQLVESGGGLVQPGGSLRLSCAASGYTFTNYGINWVRQAPGKGLEWVGWINTYTGEPTYAADFKRRFTFSLDTSKSTAYLQMNSLRAEDTAVYYCAKYPHYYGSSHWYFDVWGQGTL VL: DIQLTQSPSSLSASVGDRVTITCRANEQLSNALNWYQQKPGKAPKVLIYFTSSLHSGVPSRFSGSGSGTDFTLTISSLQPEDFATYYCQQYSTVPWTFGQGTKVEIKR",2
16,"pY0192 VL Y91A (Fab, V domains shown, Ala-scan variant of pY0192; Fab on phage) VH: EVQLVESGGGLVQPGGSLRLSCAASGYTFTNYGINWVRQAPGKGLEWVGWINTYTGEPTYAADFKRRFTFSLDTSKSTAYLQMNSLRAEDTAVYYCAKYPHYYGSSHWYFDVWGQGTL VL: DIQLTQSPSSLSASVGDRVTITCRANEQLSNYLNWYQQKPGKAPKVLIYFTSSLHSGVPSRFSGSGSGTDFTLTISSLQPEDFATYYCQQASTVPWTFGQGTKVEIKR",14
